In the supplement of paper PMC10567573:

B1: BTBD1 (parent)
chain: TSAEIELPDVEPAAFLALLRFLYS
B2: HSP90AB1 (parent)
chain: EADKNDKAVKDLVVLLFETALLSS

Variants of: B1
Test: protein stability index of a GFP-peptide fusion (GPS, HEK-293T) (PSI 1-6); higher = more stable
Conditions: c terminus: a fixed tail appended
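Further: lentivirally expressed fusions sorted by FACS into six bins by GFP to DsRed ratio, PSI derived from sequencing read proportions per bin multiplied by bin number.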

Compared with TSAEIELPDVEYAAFLALLRFLYS [P12Y], TSAEIELPDVEAAAFLALLRFLYS [P12A] is lower in protein stability index: 2.22 for the first, 1.29 for the second.

Going from TSAEISLPDVEPAAFLALLRFLYS [E6S] to TSAEIWLPDVEPAAFLALLRFLYS [E6W], the protein stability index falls from 2.49 to 1.85.

Going from TSAEICLPDVEPAAFLALLRFLYS [E6C] to TIAEIELPDVEPAAFLALLRFLYS [S2I], the protein stability index falls from 2.3 to 2.07.

First: TWAEIELPDVEPAAFLALLRFLYS [S2W]
Second: TMAEIELPDVEPAAFLALLRFLYS [S2M]
The protein stability index of the first is higher: 1.91 for the first, 1.7 for the second.

First: TAAEIELPDVEPAAFLALLRFLYS [S2A]
Second: TYAEIELPDVEPAAFLALLRFLYS [S2Y]
The protein stability index of the first is lower: 1.72 for the first, 2.28 for the second.

First: TSAEIELPDVEPAAFSALLRFLYS [L16S]
Second: TSAEIELPDVEPAAFVALLRFLYS [L16V]
The protein stability index of the first is lower: 1.69 for the first, 1.81 for the second.

Going from TSAEIELPDVEPAAFEALLRFLYS [L16E] to TSAEIELPDVEPAAFRALLRFLYS [L16R], the protein stability index falls from 2.06 to 1.64.

Compared with TSAEIELPDVEPAAFWALLRFLYS [L16W], TSAEIELPDVEPAAFDALLRFLYS [L16D] is lower in protein stability index: 1.96 for the first, 1.88 for the second.

First: TSAEIELPDVEPAAFLALLRLLYS [F21L]
Second: TSAEIELPDVEPAAFLALLRMLYS [F21M]
The protein stability index of the first is higher: 2.01 for the first, 1.94 for the second.

Compared with TSAEIELPDVEPAAFLALLRALYS [F21A], TSAEIELPDVEPAAFLALLRQLYS [F21Q] is lower in protein stability index: 2.21 for the first, 1.99 for the second.

Going from TSAEIELPDVEPAQFLALLRFLYS [A14Q] to TSAENELPDVEPAAFLALLRFLYS [I5N], the protein stability index rises from 1.77 to 2.14.

Compared with TSAEHELPDVEPAAFLALLRFLYS [I5H], TSAEIELPDVEPAAFLADLRFLYS [L18D] is higher in protein stability index: 1.93 for the first, 2.64 for the second.

Going from TSAEIELPDVEPAAFLAVLRFLYS [L18V] to TSAEIELPDVEPAAFLAELRFLYS [L18E], the protein stability index rises from 1.37 to 2.13.

Going from TSAEIELPDVEPAAFLAHLRFLYS [L18H] to TSAEIELPDVEPAAFLAGLRFLYS [L18G], the protein stability index falls from 2.55 to 1.86.

Compared with TSAEIELPWVEPAAFLALLRFLYS [D9W], TSAEIELPRVEPAAFLALLRFLYS [D9R] is higher in protein stability index: 2.12 for the first, 2.24 for the second.

Going from TSAEIELPSVEPAAFLALLRFLYS [D9S] to TSAEIELPVVEPAAFLALLRFLYS [D9V], the protein stability index falls from 2.12 to 1.95.

Going from TSAEIELPQVEPAAFLALLRFLYS [D9Q] to TSAEIELPDVEPPAFLALLRFLYS [A13P], the protein stability index falls from 2.45 to 2.05.

First: TSAEIELPDVEPQAFLALLRFLYS [A13Q]
Second: TSAEIELPDVEPSAFLALLRFLYS [A13S]
The protein stability index of the first is lower: 1.76 for the first, 2.01 for the second.

First: TSAEIELPDVEPAAFLALVRFLYS [L19V]
Second: TSAEIELPDVEPAAFLALKRFLYS [L19K]
The protein stability index of the first is lower: 1.72 for the first, 2.07 for the second.

Going from TSAEIELPDVEPAAFLALERFLYS [L19E] to TSAEIELPDVEPAAFLHLLRFLYS [A17H], the protein stability index falls from 2.31 to 1.67.

Going from TSAEIELPDVEPAAFLPLLRFLYS [A17P] to TSAEIELPDVEPAAFLVLLRFLYS [A17V], the protein stability index rises from 1.75 to 1.99.

Going from TSAEIELPDVEPAAFLALLSFLYS [R20S] to TSAEIELPDVEPAAFLALLEFLYS [R20E], the protein stability index falls from 1.93 to 1.77.

Going from TSAEIELPDVEPAAFLALLYFLYS [R20Y] to TSMEIELPDVEPAAFLALLRFLYS [A3M], the protein stability index falls from 2.09 to 1.52.

Going from TSCEIELPDVEPAAFLALLRFLYS [A3C] to TSQEIELPDVEPAAFLALLRFLYS [A3Q], the protein stability index rises from 1.98 to 2.01.

Going from RSAEIELPDVEPAAFLALLRFLYS [T1R] to KSAEIELPDVEPAAFLALLRFLYS [T1K], the protein stability index rises from 1.9 to 2.68.

First: PSAEIELPDVEPAAFLALLRFLYS [T1P]
Second: TSAEIELPDDEPAAFLALLRFLYS [V10D]
The protein stability index of the first is lower: 1.88 for the first, 2.2 for the second.

Compared with TSAEIELPDFEPAAFLALLRFLYS [V10F], TSAEIELPDSEPAAFLALLRFLYS [V10S] is higher in protein stability index: 1.82 for the first, 2.78 for the second.

Compared with TSAEIELPDYEPAAFLALLRFLYS [V10Y], TSAEIELPDREPAAFLALLRFLYS [V10R] is higher in protein stability index: 1.78 for the first, 2.09 for the second.

Going from TSAEIELPDWEPAAFLALLRFLYS [V10W] to TSAEIELPDLEPAAFLALLRFLYS [V10L], the protein stability index falls from 1.62 to 1.56.

Compared with TSAEIELPDTEPAAFLALLRFLYS [V10T], TSAEIELPDVEPAAFLALLRFNYS [L22N] is higher in protein stability index: 2.01 for the first, 2.06 for the second.

First: TSAEIELPDVEPAAFLALLRFFYS [L22F]
Second: TSAEIELPDVEPAAFLALLRFRYS [L22R]
The protein stability index of the first is higher: 2.61 for the first, 1.26 for the second.

Compared with TSAEIELPDVEPAAFLALLRFVYS [L22V], TSAEIELPDVEPAAFLALLRFGYS [L22G] is lower in protein stability index: 2.15 for the first, 1.72 for the second.

Compared with TSAEIECPDVEPAAFLALLRFLYS [L7C], TSAEIENPDVEPAAFLALLRFLYS [L7N] is higher in protein stability index: 1.75 for the first, 1.9 for the second.

Going from TSAEIEAPDVEPAAFLALLRFLYS [L7A] to TSAEIERPDVEPAAFLALLRFLYS [L7R], the protein stability index rises from 1.88 to 2.28.

First: TSAEIEYPDVEPAAFLALLRFLYS [L7Y]
Second: TSAEIELPDVEPAAFLALLRFLNS [Y23N]
The protein stability index of the first is higher: 2.05 for the first, 1.61 for the second.

Compared with TSAEIELPDVEPAAFLALLRFLHS [Y23H], TSAEIELPDVEPAAFLALLRFLQS [Y23Q] is higher in protein stability index: 1.6 for the first, 2.21 for the second.

First: TSAEIELPDVEPAAFLALLRFLYC [S24C]
Second: TSAEIELPDVEPAAFLALLRFLYK [S24K]
The protein stability index of the first is higher: 2.12 for the first, 1.52 for the second.

Going from TSAEIELPDVEPAAFLALLRFLYI [S24I] to TSAEIELPDVEPAAQLALLRFLYS [F15Q], the protein stability index falls from 2.32 to 1.83.

First: TSAEIELPDVEPAANLALLRFLYS [F15N]
Second: TSAEIELPDVFPAAFLALLRFLYS [E11F]
The protein stability index of the first is higher: 1.98 for the first, 1.68 for the second.

First: TSAEIELPDVKPAAFLALLRFLYS [E11K]
Second: TSAEIELPDVPPAAFLALLRFLYS [E11P]
The protein stability index of the first is higher: 2.75 for the first, 1.98 for the second.

First: TSAGIELPDVEPAAFLALLRFLYS [E4G]
Second: TSATIELPDVEPAAFLALLRFLYS [E4T]
The protein stability index of the first is higher: 2.07 for the first, 1.73 for the second.

Work on TSAFIELPDVEPAAFLALLRFLYS [E4F] yielded a protein stability index of 2.24.

Variants of: B2
Test: as above
Conditions: c terminus: a fixed tail appended

First: EAGKNDKAVKDLVVLLFETALLSS [D3G]
Second: EADKNDKAVKDLVVLEFETALLSS [L16E]
The protein stability index of the first is lower: 1.58 for the first, 4.31 for the second.

First: EADKNDKAVKDLVVLQFETALLSS [L16Q]
Second: TADKNDKAVKDLVVLLFETALLSS [E1T]
The protein stability index of the first is higher: 4.37 for the first, 2.58 for the second.

Going from EADKYDKAVKDLVVLLFETALLSS [N5Y] to EADKNDKAVKDLVCLLFETALLSS [V14C], the protein stability index rises from 1.83 to 2.81.

First: EADKNDKAVKDLVTLLFETALLSS [V14T]
Second: EADKNDKAVKQLVVLLFETALLSS [D11Q]
The protein stability index of the first is higher: 2.12 for the first, 1.97 for the second.

Compared with EADKNDKAVKDLVVYLFETALLSS [L15Y], EADKNDKAVKDLVVLLFETELLSS [A20E] is higher in protein stability index: 2.04 for the first, 2.43 for the second.

EADTNDKAVKDLVVLLFETALLSS [K4T] showed a protein stability index of 2.06.
